Measurements as given in patent publication US6632627B2, “Glutamine: fructose-6-phosphate amidotransferase, its production and use” (Takeda Chemical Industries, Ltd., priority 1997, dated 2003).

B1: TGC028-4: human-derived protein having the amino acid sequence of SEQ ID NO:3 (682 residues), constructed from TGC028-3 and a GFAT-like DNA fragment (protein)
chain: MCGIFAYMNYRVPRTRKEIFETLIKGLQRLEYRGYDSAGVAIDGNNHEVKERHIQLVKKRGKVKALDEELYKQDSMDLKVEFETHFGIAHTRWATHGVPSAVNSHPQRSDKGNEFVVIHNGIITNYKDLRKFLESKGYEFESETDTETIAKLIKYVFDNRETEDITFSTLVERVIQQLEGAFALVFKSVHYPGEAVATRRGSPLLIGVRSKYKLSTEQIPILYRTCTLENVKNICKTRMKRLDSSACLHAVGDKAVEFFFASDASAIIEHTNRVIFLEDDDIAAVADGKLSIHRVKRSASDDPSRAIQTLQMELQQIMKGNFSAFMQKEIFEQPESVFNTMRGRVNFETNTVLLGGLKDHLKEIRRCRRLIVIGCGTSYHAAVATRQVLEELTELPVMVELASDFLDRNTPVFRDDVCFFISQSGETADTLLALRYCKDRGALTVGVTNTVGSSISRETDCGVHINAGPEIGVASTKAYTSQFISLVMFGLMMSEDRISLQNRRQEIIRGLRSLPELIKEVLSLEEKIHDLALELYTQRSLLVMGRGYNYATCLEGALKIKEITYMHSEGILAGELKHGPLALIDKQMPVIMVIMKDPCFAKCQNALQQVTARQGRPIILCSKDDTESSKFAYKTIELPHTVDCLQGILSVIPLQLLSFHLAVLRGYDVDFPRNLAKSVTVE
B2: TGC028-3: human-derived protein having the amino acid sequence of SEQ ID NO:2 (615 residues), novel GFAT protein expressed in E. coli (protein)
chain: MCGIFAYMNYRVPRTRKEIFETLIKGLQRLEYRGYDSAGVAIDGNNHEVKERHIQLVKKRGKVKALDEELYKQDSMDLKVEFETHFGIAHTRWATHGVPSAVNSHPQRSDKGNEFVVIHNGIITNYKDLRKFLESKGYEFESETDTETIAKLIKYVFDNRETEDITFSTLVERVIQQLEGAFALVFKSVHYPGEAVATRRGSPLLIGVRSKYKLSTEQIPILYRTCTLENVKNICKTRMKRLDSSACLHAVGDKAVEFFFASDASAIIEHTNRVIFLEDDDIAAVADGKLSIHRVKRSASDDPSRAIQTLQMELQQIMKGNFSAFMQKEIFEQPESVFNTMRGRVNFETNTVLLGGLKDHLKEIRRCRRLIVIGCGTSYHAAVATRQVLEELTELPVMVELASDFLDRNTPVFRDDVCFFISQSGETADTLLALRYCKDRGALTVGVTNTVGSSISRETDCGVHINAGPEIGVASTKAYTSQFISLVMFGLMMSEDRISLQNRRQEIIRGLRSLPELIKEVLSLEEKIHDLALELYTQRSLLVMGRGYNYATCLEGALKIKEITYMHSEGILAGELKHGPLALIDKQMPVIMVIMKDPCFAKCQNALQQVTARQV

Assay: Detection of GFAT activity of the proteins (HPLC detection of PITC-bound glucosamine-6-phosphate)
Assay type: biochemical
Conditions: 1 μl recombinant protein in 100 μl reaction mixture; 6 mM glutamine, 10 mM fructose-6-phosphate; pH 7.5; room temperature, 5 hours
Description: GFAT activity of the proteins: TGC028-3 and TGC028-4 was measured in the following manner. In a solution (0.1 M K2HP04, 50 mM KCl, 50 mM HEPES, 1 mM EDTA, 5 mM DTT, pH 7.5) were added glutamine and fructose-6-phosphate to final concentrations of 6 mM and 10 mM, respectively. Then, in 100 μl of this reaction mixture was added 1 μl of TGC028-3 or TGC028-4 protein, and the reaction mixture was incubated at room temperature for 5 hours. Thereafter, the reaction mixture was subjected to centrifugal filtration using a Ultrafree C3GC (cut-off molecular weight: 10,000; Millipore) and the filtrate obtained was mixed with an equal volume of a solution consisted of methanol, water, and triethylamine at the ratio of 2:2:1. After the mixture was dried in vacuo, the residue was dissolved in 20 μl of a mixed solution of methanol, water, and triethylamine-phenyl isothiocyanate (PITC) at the ratio of 7:1:1:1 and the reaction was carried out at room temperature for 20 minutes. […] Elution was carried out using a mobile phase comprising 232 mM sodium acetate, 0.1% triethylamine and 5% acetonitrile (pH 6.0) at a flow rate of 1 ml/minute and PITC-bound glucosamine-6-phosphate was detected at UV 254 nm.

| Molecule | GFAT activity: formation of glucosamine-6-phosphate (peak of PITC-bound glucosamine-6-phosphate by HPLC, UV 254 nm) |
| --- | --- |
| B1 | a peak was confirmed at the position corresponding to PITC-bound glucosamine-6-phosphate |
| B2 | a peak was confirmed at the position corresponding to PITC-bound glucosamine-6-phosphate |
